{"source": "patent US20220119534A1", "about": "(DRAGONFLY THERAPEUTICS, published 2022)", "binders": {"B1": {"name": "F3'-1602 TriNKET (bispecific antibody, human IgG1, kappa)", "chain": "QLQLQESGPGLVKPSETLSLTCTVSGFSLTNYGLHWIRQPPGKCLEWIGVIWSGGKTDYNPSLKSRVTISKDTSKNQFSLKLSSVQAADTAVYYCAKYDYDDSLDYWGQGTLVTVSSGGGGSGGGGSGGGGSGGGGSDIQMTQSPSSLSASVGDRVTITCHASQNINFWLSWYQQKPGKAPKLLIYEASNLHTGVPSRFSGSGSGTRFTLTISSLQPEDIATYYCQQSHSYPLTFGCGTKLEIKGSDKTHTCPPCPAPELLGGPSVFLFPPKPKDTLMISRTPEVTCVVVDVSHEDPEVKFNWYVDGVEVHNAKTKPREEQYNSTYRVVSVLTVLHQDWLNGKEYKCKVSNKALPAPIEKTISKAKGQPREPRVYTLPPCRDELTKNQVSLTCLVKGFYPSDIAVEWESNGQPENNYKTTPPVLVSDGSFTLYSKLTVDKSRWQQGNVFSCSVMHEALHNHYTQKSLSLSPG", "heavy": "EVQLVESGGGLVKPGGSLRLSCAASGFTFSSYSMNWVRQAPGKGLEWVSSISSSSSYIYYADSVKGRFTISRDNAKNSLYLQMNSLRAEDTAVYYCARGAPIGAAAGWFDPWGQGTLVTVSSASTKGPSVFPLAPSSKSTSGGTAALGCLVKDYFPEPVTVSWNSGALTSGVHTFPAVLQSSGLYSLSSVVTVPSSSLGTQTYICNVNHKPSNTKVDKKVEPKSCDKTHTCPPCPAPELLGGPSVFLFPPKPKDTLMISRTPEVTCVVVDVSHEDPEVKFNWYVDGVEVHNAKTKPREEQYNSTYRVVSVLTVLHQDWLNGKEYKCKVSNKALPAPIEKTISKAKGQPREPQVCTLPPSRDELTENQVSLTCLVKGFYPSDIAVEWESNGQPENNYKTTPPVLDSDGSFFLYSWLTVDKSRWQQGNVFSCSVMHEALHNHYTQKSLSLSPG", "light": "DIQMTQSPSSVSASVGDRVTITCRASQGISSWLAWYQQKPGKAPKLLIYAASSLQSGVPSRFSGSGSGTDFTLTISSLQPEDFATYYCQQGVSFPRTFGGGTKVEIKRTVAAPSVFIFPPSDEQLKSGTASVVCLLNNFYPREAKVQWKVDNALQSGNSQESVTEQDSKDSTYSLSSTLTLSKADYEKHKVYACEVTHQGLSSPVTKSFNRGEC", "notes": "Trispecific F3' format: CLEC12A scFv-Fc paired with NKG2D Fab-Fc; Stressed and control samples of the stability studies are the same molecule; also called AB0237"}, "B2": {"name": "AB0089 TriNKET (bispecific antibody, human IgG1, kappa)", "chain": "B1 chain with S53V, K56A, K71V, Y98G, D101G, S103T, R207D, I220F", "heavy": "B1 heavy", "light": "B1 light", "notes": "F3' format heterodimer of three chains; human IgG1 Fc with EW-RVT and Y349C/S354C mutations; also called AB0089 Lot AB0089-002; CLEC12A TriNKET AB0089"}, "B3": {"name": "F3'-1602 TriNKET (other)", "chain": "B1 chain", "heavy": "B1 heavy", "light": "B1 light", "notes": "CLEC12A scFv-Fc, NKG2D A49MI Fab-Fc, human IgG1 Fc; also called AB0237"}, "B4": {"name": "AB0192 TriNKET (other)", "chain": "EVQLVESGGGVVQPGGSLRLSCAASGFTFNAFGMHWVRQAPGKCLEWVAFISSGSTSIYYANTVKGRFTISRDNSKNTLYLQMNSLRAEDTAVYYCARDGYPTGGAMDYWGQGTSVTVSSGGGGSGGGGSGGGGSGGGGSDIQMTQSPSSLSASVGDRVTITCKASQDIYNYLSWFQQKPGKAPKPLIYRANILVSGVPSRFSGSGSGQDYTFTISSLQPEDIATYYCLQFDAFPFTFGCGTKLEIKGSDKTHTCPPCPAPELLGGPSVFLFPPKPKDTLMISRTPEVTCVVVDVSHEDPEVKFNWYVDGVEVHNAKTKPREEQYNSTYRVVSVLTVLHQDWLNGKEYKCKVSNKALPAPIEKTISKAKGQPREPRVYTLPPCRDELTKNQVSLTCLVKGFYPSDIAVEWESNGQPENNYKTTPPVLVSDGSFTLYSKLTVDKSRWQQGNVFSCSVMHEALHNHYTQKSLSLSPG", "heavy": "B1 heavy", "light": "B1 light", "notes": "the condition stands under assay; also called AB0192 Lot AB0192-005"}}, "key": {"[1]": {"biological_target": "T1, mFc-cNKG2D (cynomolgus monkey, UniProt P61252 73-216)", "T1 construct": "extracellular domain; Made in house (Dragonfly Tx); also called recombinant cyno NKG2D extracellular domain (ECD); mFc-tagged cyno NKG2D dimer; not shown: mouse Fc tag", "T1 sequence (looked up)": "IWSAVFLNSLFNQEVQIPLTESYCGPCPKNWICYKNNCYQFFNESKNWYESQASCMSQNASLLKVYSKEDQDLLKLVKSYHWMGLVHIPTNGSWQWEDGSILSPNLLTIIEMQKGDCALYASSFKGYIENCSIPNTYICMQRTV", "test": "SPR Biacore 37 C; mFc-tagged cyno NKG2D dimer, TriNKET as analyte; kinetics fit"}, "[2]": {"biological_target": "T2, Human CLEC12A-His (human, UniProt Q5QGZ9 65-265)", "T2 construct": "Recombinant soluble protein made in house (Dragonfly Tx); The hCLEC12A spot of the HuProt array is written under this molecule as well; also called hCLEC12A-His; hCLEC12A; not shown: His tag", "T2 sequence": "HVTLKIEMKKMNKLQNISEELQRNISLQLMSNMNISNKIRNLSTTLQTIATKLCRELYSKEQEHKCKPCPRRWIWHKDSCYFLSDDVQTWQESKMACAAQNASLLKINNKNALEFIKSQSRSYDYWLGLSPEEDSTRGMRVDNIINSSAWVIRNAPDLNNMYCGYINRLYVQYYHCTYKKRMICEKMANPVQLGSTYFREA", "test": "SPR Biacore 8K 37 C; TriNKET captured on anti-hFc chip, hCLEC12A-His as analyte; 1:1 fit; control, n=4"}, "[3]": {"biological_target": "T3, Human CLEC12A expressed on cells (Ba/F3-hCLEC12A, PL21, HL60) (human, UniProt Q5QGZ9 1-265)", "T3 sequence": "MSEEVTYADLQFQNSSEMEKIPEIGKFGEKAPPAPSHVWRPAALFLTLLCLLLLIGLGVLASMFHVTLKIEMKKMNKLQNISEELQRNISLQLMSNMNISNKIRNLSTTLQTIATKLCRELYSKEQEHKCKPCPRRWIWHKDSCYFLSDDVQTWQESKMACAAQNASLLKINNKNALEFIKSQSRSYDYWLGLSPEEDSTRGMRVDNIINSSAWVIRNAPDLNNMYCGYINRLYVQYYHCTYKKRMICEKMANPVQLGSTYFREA", "test": "cell-based or functional assay"}, "[4]": {"biological_target": "T4, mFc-hNKG2D (recombinant mFc-tagged human NKG2D dimer) (human, UniProt P26718 73-216)", "T4 construct": "extracellular domain; Made in house; not shown: mouse Fc tag", "T4 sequence (looked up)": "T1 sequence (looked up) with N43D, I133T", "test": "SPR; after 4 wks 40C in CST pH 7.0"}, "[5]": {"biological_target": "T5, Cynomolgus CD64 (FcγRI) (cynomolgus monkey, UniProt A0A2K5U901 33-309, Biotinylated and captured on the CAP chip (p-1094); the biotin site is not stated.)", "T5 construct": "Bought recombinant receptor; also called cFcγRI; Cynomolgus FcγRI; not shown: The vendor's biotinylation and purification tag (ACRO FCA-C82E8)", "T5 sequence (A0A2K5U901 entry or part of it limits assumed)": "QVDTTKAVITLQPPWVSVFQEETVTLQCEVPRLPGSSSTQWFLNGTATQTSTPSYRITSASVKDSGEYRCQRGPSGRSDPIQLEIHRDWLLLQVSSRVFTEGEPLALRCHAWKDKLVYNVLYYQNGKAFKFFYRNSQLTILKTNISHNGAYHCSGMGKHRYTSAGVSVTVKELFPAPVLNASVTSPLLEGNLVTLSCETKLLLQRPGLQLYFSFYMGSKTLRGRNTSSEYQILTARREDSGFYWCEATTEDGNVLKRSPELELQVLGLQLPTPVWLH", "test": "SPR, summary of FcγR affinities (n = 3)"}, "[6]": {"biological_target": "T6, Cynomolgus CD16 (FcγRIII) (cynomolgus monkey, UniProt Q8SPW2 17-208, biotinylated)", "T6 construct": "Bought recombinant receptor; also called cFcγRIII; Cyno FcγRIII", "T6 sequence (Q8SPW2 17-208 limits assumed)": "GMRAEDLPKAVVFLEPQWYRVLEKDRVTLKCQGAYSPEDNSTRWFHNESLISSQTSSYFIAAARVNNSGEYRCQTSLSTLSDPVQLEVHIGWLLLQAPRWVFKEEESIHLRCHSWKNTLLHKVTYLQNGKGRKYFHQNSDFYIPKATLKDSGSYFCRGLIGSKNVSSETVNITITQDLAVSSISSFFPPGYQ", "test": "SPR, summary of FcγR affinities (n = 3)"}, "[7]": {"biological_target": "T7, Human CD16b (FcγRIIIb) (human, UniProt O75015 17-200, limits assumed, biotinylated)", "T7 construct": "Bought recombinant receptor; also called hFcγRIIIb; CD16b (FcγR3b)", "T7 sequence (O75015 17-200 limits assumed)": "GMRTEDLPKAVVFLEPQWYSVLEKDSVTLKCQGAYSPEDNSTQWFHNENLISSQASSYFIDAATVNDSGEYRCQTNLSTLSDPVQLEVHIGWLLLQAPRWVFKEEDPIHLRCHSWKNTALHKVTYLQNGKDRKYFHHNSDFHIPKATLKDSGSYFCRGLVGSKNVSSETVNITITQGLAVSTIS", "test": "SPR, summary of FcγR affinities (n = 3)"}, "[8]": {"biological_target": "T8, recombinant human CD32a R131 (human, UniProt P12318 36-218, limits assumed, biotinylated)", "T8 construct": "also called FcγRIIa R131", "T8 sequence (looked up)": "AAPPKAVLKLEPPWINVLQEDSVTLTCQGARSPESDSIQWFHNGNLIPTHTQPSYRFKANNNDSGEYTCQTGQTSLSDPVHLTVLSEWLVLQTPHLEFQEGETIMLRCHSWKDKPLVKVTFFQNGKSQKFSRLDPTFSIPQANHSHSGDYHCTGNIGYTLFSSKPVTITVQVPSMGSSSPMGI", "test": "SPR 25C, steady state"}, "[9]": {"biological_target": "T9, recombinant cynomolgus FcRn (cynomolgus monkey, UniProt Q8SPV9 24-297; Q8SPW0 21-119)", "T9 construct": "also called cFcRn; cyno FcRn", "T9 sequence (Q8SPV9 24-297 limits assumed, chain 1 of 2)": "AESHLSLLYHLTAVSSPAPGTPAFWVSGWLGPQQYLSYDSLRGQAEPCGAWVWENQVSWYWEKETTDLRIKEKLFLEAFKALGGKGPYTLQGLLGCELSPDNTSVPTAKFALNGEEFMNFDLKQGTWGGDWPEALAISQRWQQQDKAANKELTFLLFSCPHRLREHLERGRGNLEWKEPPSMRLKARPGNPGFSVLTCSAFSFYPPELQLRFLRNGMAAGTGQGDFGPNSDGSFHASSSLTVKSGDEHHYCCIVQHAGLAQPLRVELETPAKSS", "T9 sequence (Q8SPW0 21-119 limits assumed, chain 2 of 2)": "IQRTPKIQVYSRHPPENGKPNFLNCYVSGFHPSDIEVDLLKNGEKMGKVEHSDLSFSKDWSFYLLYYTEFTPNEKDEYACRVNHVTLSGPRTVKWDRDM", "test": "SPR 25C, pH 6.0, steady state, average; pH 6.0; average of four replicates"}, "[10]": {"biological_target": "T10, Human CD32b (human, UniProt P31994 46-217, limits assumed, biotinylated)", "T10 construct": "Bought recombinant receptor; also called hFcγRIIb", "T10 sequence (looked up)": "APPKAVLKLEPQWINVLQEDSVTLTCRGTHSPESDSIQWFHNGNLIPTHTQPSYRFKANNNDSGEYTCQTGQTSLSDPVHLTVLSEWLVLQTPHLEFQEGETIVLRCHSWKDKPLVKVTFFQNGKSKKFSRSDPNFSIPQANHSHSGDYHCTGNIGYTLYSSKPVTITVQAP", "test": "SPR, steady state fit; average for AB0192"}, "[11]": {"biological_target": "T11, Human CD64 (human, UniProt P12314 16-288, biotinylated)", "T11 construct": "Bought recombinant receptor; also called hFcγRI; Human CD64 (FcγRI)", "T11 sequence (P12314 16-288 limits assumed)": "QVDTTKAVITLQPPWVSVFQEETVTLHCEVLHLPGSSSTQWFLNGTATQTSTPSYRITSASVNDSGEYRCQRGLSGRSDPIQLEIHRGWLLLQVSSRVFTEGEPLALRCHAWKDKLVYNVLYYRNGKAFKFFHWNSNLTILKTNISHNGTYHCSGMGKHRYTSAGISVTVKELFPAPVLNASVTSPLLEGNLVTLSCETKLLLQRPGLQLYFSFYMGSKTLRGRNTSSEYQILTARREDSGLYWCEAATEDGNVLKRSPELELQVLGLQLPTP", "test": "SPR, human CD64 captured; average for AB0192"}, "[12]": {"biological_target": "T12, Human CLEC12A-His (human, UniProt Q5QGZ9 65-265)", "T12 construct": "Recombinant soluble protein made in house; also called hCLEC12A-His; hCLEC12A; not shown: His tag", "T12 sequence": "T2 sequence", "test": "SPR, 37 C, AB0192 captured, hCLEC12A-His analyte"}}, "note": "Where a chain is given by its changes, count along the chain named. Names may count otherwise. “And” between values parts separate entries of the source, which are not always exact repeats. Equal entries are not always repeated.", "data": [{"binder": "B1", "values": [{"measurement": "Kd", "setting": "[1]", "result": "0.831 µM and 0.825 µM and 0.931 µM and 0.769 µM"}, {"measurement": "Kd", "setting": "[2]", "result": 0.000638, "unit": "µM"}, {"measurement": "koff", "setting": "[2]", "result": 0.000433, "unit": "s⁻¹"}, {"measurement": "kon", "setting": "[2]", "result": 678000, "unit": "M⁻¹ s⁻¹"}]}, {"binder": "B2", "values": [{"measurement": "EC50, KHYG-1-CD16aV mediated cytotoxicity, HL60 cells", "setting": "[3]", "result": 0.00027, "unit": "µM"}, {"measurement": "EC50, KHYG-1-CD16aV mediated cytotoxicity, PL21 cells", "setting": "[3]", "result": 0.00016, "unit": "µM"}, {"measurement": "Kd", "setting": "[4]", "result": 0.791, "unit": "µM"}, {"measurement": "koff", "setting": "[4]", "result": 0.126, "unit": "s⁻¹"}, {"measurement": "kon", "setting": "[4]", "result": 160000, "unit": "M⁻¹ s⁻¹"}, {"measurement": "Kd", "setting": "[5]", "result": 0.0015, "unit": "µM"}, {"measurement": "Kd", "setting": "[6]", "result": 0.349, "unit": "µM"}, {"measurement": "Kd", "setting": "[7]", "result": 8.85, "unit": "µM"}]}, {"binder": "B3", "values": [{"measurement": "Kd", "setting": "[8]", "result": "1.4 µM and 1.3 µM and 1.7 µM and 1.2 µM"}, {"measurement": "Kd", "setting": "[9]", "result": 1.3, "unit": "µM"}]}, {"binder": "B4", "values": [{"measurement": "Kd", "setting": "[10]", "result": 6.1, "unit": "µM"}, {"measurement": "Kd", "setting": "[11]", "result": 0.0052, "unit": "µM"}, {"measurement": "koff", "setting": "[11]", "result": 0.00025, "unit": "s⁻¹"}, {"measurement": "kon", "setting": "[11]", "result": 48000, "unit": "M⁻¹ s⁻¹"}, {"measurement": "Kd", "setting": "[12]", "result": "0.00172 µM and 0.00199 µM and 0.00171 µM"}, {"measurement": "koff", "setting": "[12]", "result": "0.00136 s⁻¹ and 0.00151 s⁻¹ and 0.00134 s⁻¹"}, {"measurement": "kon", "setting": "[12]", "result": "787000 M⁻¹ s⁻¹ and 757000 M⁻¹ s⁻¹ and 785000 M⁻¹ s⁻¹"}]}]}
